PMC7116145

Molecular target: CPTX, biotinylated on a C-terminal Avitag (immobilised in SPR) (UniProt P23435)
Experiment: SPR

B1: mouse glutamate receptor A4 amino-terminal domain (domain or fragment)
chain: GAFPSSVQIGGLFIRNTDQEYTAFRLAIFLHNTSPNASEAPFNLVPHVDNIETANSFAVTNAFCSQYSRGVFAIFGLYDKRSVHTLTSFCSALHISLITPSFPTEGESQFVLQLRPSLRGALLSLLDHYEWNCFVFLYDTDRGYSILQAIMEKAGQNGWHVSAICVENFNDVSYRQLLEELDRRQEKKFVIDCEIERLQNILEQIVSVGKHVKGYHYIIANLGFKDISLERFIHGGANVTGFQLVDFNTPMVTKLMDRWKKLDQREYPGSETPPKYTSALTYDGVLVMAETFRSLRRQKIDISRRGNAGDCLANPAAPWGQGIDMERTLKQVRIQGLTGNVQFDHYGRRVNYTMDVFELKSTGPRKVGYWNDMDKLVLIQDAPTLGNDTAAIENRTVVVT
With B1 the Kd was 4.5 µM.
